The values that follow are results of earlier work, collected in PMC9304195.

A word on the pKd: it is the negative decadic logarithm of the Kd, by convention in mol/L.

pKd: −log10 of the molar value.

In this data set the target is UGGT (Homo sapiens) (UniProt Q9NYU2).
UGGT (Homo sapiens), sequence (Q9NYU2 43-1555): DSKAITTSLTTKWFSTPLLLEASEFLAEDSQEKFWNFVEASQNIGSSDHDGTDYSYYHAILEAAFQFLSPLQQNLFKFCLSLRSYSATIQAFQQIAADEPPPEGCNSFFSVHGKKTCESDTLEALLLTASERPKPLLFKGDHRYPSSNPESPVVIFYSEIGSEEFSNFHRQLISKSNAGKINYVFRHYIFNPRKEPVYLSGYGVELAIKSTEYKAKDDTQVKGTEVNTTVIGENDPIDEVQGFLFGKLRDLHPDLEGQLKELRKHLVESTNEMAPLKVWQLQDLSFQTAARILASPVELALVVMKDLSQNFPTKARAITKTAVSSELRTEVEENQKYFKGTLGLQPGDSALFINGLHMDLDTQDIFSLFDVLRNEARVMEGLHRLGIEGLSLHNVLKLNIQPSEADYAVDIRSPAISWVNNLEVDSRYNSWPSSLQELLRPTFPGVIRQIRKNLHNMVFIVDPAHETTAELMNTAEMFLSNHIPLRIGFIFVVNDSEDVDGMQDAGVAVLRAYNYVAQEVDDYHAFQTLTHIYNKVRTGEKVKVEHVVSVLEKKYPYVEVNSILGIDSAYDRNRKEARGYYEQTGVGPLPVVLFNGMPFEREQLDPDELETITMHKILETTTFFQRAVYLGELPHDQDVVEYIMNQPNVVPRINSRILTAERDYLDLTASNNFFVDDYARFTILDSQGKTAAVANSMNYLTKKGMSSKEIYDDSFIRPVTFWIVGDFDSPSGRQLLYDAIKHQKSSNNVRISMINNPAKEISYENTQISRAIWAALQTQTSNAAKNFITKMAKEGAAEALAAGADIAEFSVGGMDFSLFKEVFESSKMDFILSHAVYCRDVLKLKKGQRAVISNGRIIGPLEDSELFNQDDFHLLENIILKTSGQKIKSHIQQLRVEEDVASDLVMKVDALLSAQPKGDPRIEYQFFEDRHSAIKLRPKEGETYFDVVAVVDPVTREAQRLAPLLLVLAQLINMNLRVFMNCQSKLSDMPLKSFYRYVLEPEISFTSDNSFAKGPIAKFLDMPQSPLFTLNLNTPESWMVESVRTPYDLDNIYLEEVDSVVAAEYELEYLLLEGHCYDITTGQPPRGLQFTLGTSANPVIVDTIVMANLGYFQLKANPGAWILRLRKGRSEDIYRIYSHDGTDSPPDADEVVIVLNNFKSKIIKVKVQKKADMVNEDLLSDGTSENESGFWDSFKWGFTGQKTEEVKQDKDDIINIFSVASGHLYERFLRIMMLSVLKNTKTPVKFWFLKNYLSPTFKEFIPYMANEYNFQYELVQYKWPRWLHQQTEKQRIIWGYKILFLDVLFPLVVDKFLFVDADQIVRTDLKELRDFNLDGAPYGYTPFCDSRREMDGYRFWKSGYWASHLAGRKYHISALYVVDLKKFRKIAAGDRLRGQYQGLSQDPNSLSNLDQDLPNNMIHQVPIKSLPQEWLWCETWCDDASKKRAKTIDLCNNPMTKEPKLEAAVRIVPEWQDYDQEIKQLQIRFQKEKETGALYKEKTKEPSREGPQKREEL

SELENOF, sequence (O60613 32-165): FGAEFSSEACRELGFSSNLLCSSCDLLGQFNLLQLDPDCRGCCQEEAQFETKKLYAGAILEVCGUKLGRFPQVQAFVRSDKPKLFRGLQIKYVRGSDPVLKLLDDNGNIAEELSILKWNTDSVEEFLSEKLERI

With SELENOF (from UniProt O60613), the negative-log Kd (pKd) was 7.70.
